The target in assay [1] is Hsp70 E. coli T504E phosphomimic variant (human) (UniProt P0DMV8). The assay is described as follows: native MS; labeled wild-type Hsp70 E. coli and the T504E variant examined in a 1:1 ratio (Figure S1C).
For assay [2], the target named is Hsp70 E. coli V438F/T504E substrate-binding-deficient variant (human) (UniProt P0DMV8). In words: not stated; dimerization of the V438F/T504E mutant (Figure S4B); method not given.
The next assay concerns the target Hsp70. The assay is described as follows: comparative BS3 cross-linking with LC-MS/MS. The settings on record: reference: Hsp70 expressed in E. coli; sites T504.
Assay [3] has as its target Hsp70 expressed in E. coli (Hsp70 E. coli) (human) (UniProt P0DMV8). In words: native MS; 1:1 mixture of 13C-labeled Hsp70 E. coli and Hsp70Sf9 at 8 μM; parameters designed to preserve non-covalent interactions.
Assay [4] shares this target. The assay is described as follows: native MS; 1:1 ratio of 13C-labeled Hsp70 E. coli and Hsp70Sf9 with catalytic amounts of Hsp40 and ATP.
For assay [5] the target is unchanged. In words: native MS; Hsp70 E. coli at a higher concentration under which dimerization occurs, with phosphatase, 48 hr (Figures S1A and S1B).
The target in assay [6] is Hsp70 expressed in Sf9 insect cells (Hsp70Sf9) (human) (UniProt P0DMV8). The assay is described as follows: native MS; 1:1 mixture of 13C-labeled Hsp70 E. coli and Hsp70Sf9 at 8 μM; parameters designed to preserve non-covalent interactions.
Assay [7] has the same target. In words: native MS; 1:1 ratio of 13C-labeled Hsp70 E. coli and Hsp70Sf9 with catalytic amounts of Hsp40 and ATP.
Assay [8] addresses Hsp90_(2)Hop complex (human) (UniProt P07900). In words: native MS; Hsp90 and Hop with either Hsp70 E. coli or Hsp70Sf9, in the absence of Hsp40.
Assay [9] has as its target Hsp70 expressed in Sf9 insect cells (Hsp70Sf9) (human) (UniProt P0DMV8). In words: native MS; 1:1 mixture of 3 μM 13C-labeled Hsp70 E. coli and Hsp70Sf9, incubated without phosphatase in 100 mM AmAc pH 7.5 at 4°C for 16 hr; high backing pressure.
The target is the same in assay [10]. In words: native MS; 2 μM Hsp70Sf9, 0.5 μM Hsp40, 200 μM ATP/Mg2+, binding buffer with 50, 100 or 300 mM KCl, 1 hr at room temperature; buffer exchanged to 100 mM AmAc.
Assay [11] shares this target. In words: cross-linking; BS3 on Hsp70Sf9 in excess ATP (also ADP, ATPγS); SDS-PAGE, monomer and dimer bands digested with trypsin, LC-MS/MS.
The target in assay [12] is Hsp90 (human) (UniProt P07900). In words: native MS; Hsp90 and Hop with either Hsp70 E. coli or Hsp70Sf9, in the absence of Hsp40.
The target in assay [13] is Hsp90 (human) (UniProt P07900). In words: native MS; Hsp70GR complex formed with catalytic Hsp40 (0.3 μM) and ATP, then incubated with Hsp90_(2)Hop; Hsp90, Hop, Hsp70 and GR equimolar (1 μM each), or two Hsp70 per Hsp90_(2).
For assay [14], the target named is Hsp90 (human) (UniProt P07900). The assay is described as follows: native MS; stoichiometric amounts of p23 added to the client-loading complex Hsp90_(2)Hsp70_(2)HopGR.
In a further assay the target is Yeast Hsp40 (yeast) (UniProt P25491). In words: native MS; Hsp40 alone, 100 mM ammonium acetate pH 7.5 (Figure S5C).

In general, stoichiometry N refers to a count of units in the complex or per binding partner.

For the substance “Hsp70 E. coli T504E phosphomimic variant (from UniProt P0DMV8 1-641) (natural protein)”, the stoichiometry N in assay [1] was found to be 2.

In turn, “Hsp70 E. coli V438F/T504E substrate-binding-deficient variant (from UniProt P0DMV8 1-641) (natural protein)” displayed a stoichiometry N in assay [2] of 2.

For the substance Hsp70 Hsp70 expressed in Sf9 cells, the “other: K569-K108 cross-link intensity ratio” value with Hsp70 is recorded as “stronger; reference 1.0”.

As for “Hsp70 expressed in E. coli (Hsp70 E. coli) (from UniProt P0DMV8 1-641) (natural protein)”, the stoichiometry N in assay [3], in assay [4] and in assay [5] was 2 throughout.

As for “Hsp70 expressed in Sf9 insect cells (Hsp70Sf9) (from UniProt P0DMV8 1-641) (natural protein)”, the stoichiometry N in assay [6], in assay [7], in assay [8], in [9], in assay [10] and in [11] was 2 in each case.

In the case of “Hsp90 (from UniProt P07900 1-732) (natural protein)”, the stoichiometry N with Hsp90 (human) [12], in the assay with Hsp90 (human) [13] and with Hsp90 (human) [14] was 2 each time.

The substance “Yeast Hsp40 (from UniProt P25491 1-409) (natural protein)” gave a stoichiometry N in the assay with Yeast Hsp40 (yeast) of 2.

Source of the values: paper PMC4431665.
